Laboratory results taken from paper PMC4237735, “Codon optimization and factorial screening for enhanced soluble expression of human ciliary neurotrophic factor in Escherichia coli” (BMC Biotechnology, 2014).

Biological target: T1, human ciliary neurotrophic factor receptor alpha (hCNTFRα) (human, UniProt P26992 23-342)
T1 construct: human ciliary neurotrophic factor receptor alpha (hCNTFRα), bought protein; also called hCNTF receptor; source: bought: Sino Biologicals Inc
T1 sequence (looked up): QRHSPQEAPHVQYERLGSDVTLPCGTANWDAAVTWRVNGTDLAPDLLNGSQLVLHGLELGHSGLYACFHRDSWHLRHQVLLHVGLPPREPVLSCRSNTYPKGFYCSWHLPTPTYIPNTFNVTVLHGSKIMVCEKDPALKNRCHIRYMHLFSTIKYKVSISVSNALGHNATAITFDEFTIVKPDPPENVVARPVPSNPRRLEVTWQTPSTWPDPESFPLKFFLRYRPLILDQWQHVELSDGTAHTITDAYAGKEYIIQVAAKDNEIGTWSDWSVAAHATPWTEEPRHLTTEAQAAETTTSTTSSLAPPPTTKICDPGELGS
Test: ELISA; 1 μg hCNTFRα in PBS immobilised on Nunc MaxiSorp 96-well plate; blocked with 2% BSA in TBS-T; biotinylated CNTF 0.2 – 3.0 μg added, room temperature 2 h; detected with HRP-conjugated streptavidin and TMB, OD 450 nm
Settings: both partners purified

B1: recombinant 6-His-hCNTF (human ciliary neurotrophic factor), biotinylated (ligand, UniProt P26441 1-200, looked up)
chain: MAFTEHSPLTPHRRDLCSRSIWLARKIRSDLTALTESYVKHQGLNKNINLDSADGMPVASTDQWSELTEAERLQENLQAYRTFHVLLARLLEDQQVHFTPTEGDFHQAIHTLLLQVAAFAYQIEELMILLEYKIPRNEADGMPINVGDGGLFEKKLWGLKVLQELSQWTVRSIHDLRFISSHQTGIPARGSHYIANNKKM
modifications: biotin (reacted with a 20-fold molar excess of NHS-PEG4-biotin; sites not stated)
notes: Rhinovirus 3C protease cleavage site between the tag and the insert; No cleavage of the 6-His tag is described; also called biotinylated hCNTF; biotinylated CNTF; source: E. coli Rosetta 2(DE3)pLysS, TBONEX 25°C, purified (Ni-IDA, SEC)
EC50: 36 nM
